From patent publication US20260022175A1 (Chugai, published 2026)
Where two headings read alike, the source gives them in different places. One block for each binder: values may come before it.

Columns and labels:
human CTLA4 [1] = target: T1, human CTLA4 (human); assay: SPR Biacore T200, 37C, antibody captured, ATP 10 uM
T1 construct: also called hCTLA4; hCTLA4-His-BAP
Description: (§1) Biacore T200 was used to measure the binding of the generated antibodies to human CTLA4. 20 mM ACES (pH 7.4), 150 mM NaCl, 2 mM MgCl₂, 0.05% Tween 20 with ATP added to the desired concentration was used as the running buffer, and the assay was performed at 37° C. First, Protein G (CALBIOCHEM) was immobilized onto a Series S Sensor Chip CM3 (GE Healthcare), and the antibodies were captured by interacting an antibody solution prepared in an ATP-free running buffer with the chip. Next, by interacting with a human CTLA4 solution prepared in a running buffer containing ATP to the desired concentration, or a human CTLA4 solution prepared in a running buffer containing no ATP, the binding ability of the antibody to human CTLA4 in the presence or absence of ATP was evaluated. Chips were regenerated with 25 mM NaOH and 10 mM Glycine-HCl (pH 1.5), and assay was performed by repeatedly capturing antibodies. The dissociation constant of each antibody for CTLA4 was calculated using Biacore T200 Evaluation Software 2.0. Specifically, the binding rate constant ka (L/mol/s) and the dissociation rate constant kd (1/s) were calculated by global fitting of the sensorgrams obtained by the measurement, using a 1:1 Langmuir binding model. The dissociation constant KD (mol/L) was calculated from those values. Alternatively, the dissociation constant KD (mol/L) was calculated by the steady state model. In addition, the binding amount of CTLA4 per unit amount of antibody was calculated by correcting the amount of CTLA4 bound as calculated from the sensorgram obtained by the assay with the amount of antibody captured onto the chip surface.
(§2) Next, the binding ability of some variants to mouse CTLA4 and cynomolgus monkey CTLA4 was evaluated.

[2] = target: T2, cynomolgus monkey CTLA4 (CyCTLA4-His-BAP) (cynomolgus monkey); assay: as above
Description: as §1, §2

[3] = target: T3, mouse CTLA4 extracellular region linked with a His-tag (mCTLA4-His) (mouse, UniProt P09793 36-161); assay: as above
Description: as §1, §2

human CTLA4 [4] = target: T1, human CTLA4; assay: SPR Biacore T200, 37C, antibody captured, no ATP; no ATP
Description: Biacore T200 was used to measure the binding of the generated antibodies to human CTLA4. 20 mM ACES (pH 7.4), 150 mM NaCl, 2 mM MgCl₂, 0.05% Tween 20 with ATP added to the desired concentration was used as the running buffer, and the assay was performed at 37° C. First, Protein G (CALBIOCHEM) was immobilized onto a Series S Sensor Chip CM3 (GE Healthcare), and the antibodies were captured by interacting an antibody solution prepared in an ATP-free running buffer with the chip. Next, by interacting with a human CTLA4 solution prepared in a running buffer containing ATP to the desired concentration, or a human CTLA4 solution prepared in a running buffer containing no ATP, the binding ability of the antibody to human CTLA4 in the presence or absence of ATP was evaluated. Chips were regenerated with 25 mM NaOH and 10 mM Glycine-HCl (pH 1.5), and assay was performed by repeatedly capturing antibodies. The dissociation constant of each antibody for CTLA4 was calculated using Biacore T200 Evaluation Software 2.0. Specifically, the binding rate constant ka (L/mol/s) and the dissociation rate constant kd (1/s) were calculated by global fitting of the sensorgrams obtained by the measurement, using a 1:1 Langmuir binding model. The dissociation constant KD (mol/L) was calculated from those values. Alternatively, the dissociation constant KD (mol/L) was calculated by the steady state model. […]

human CTLA4 [5] = target: T1, human CTLA4; assay: SPR Biacore T200, 37C, antibody captured, ATP 10 uM; remark: listed apart in the source
human CTLA4 [6] = target: T1, human CTLA4; assay: SPR Biacore T200, 37C, antibody captured, ATP 1 uM
Description: as §1, §2

[7] = target: T2, cynomolgus monkey CTLA4 …; assay: SPR Biacore T200, 37C, antibody captured, ATP 1 uM
Description: as §1, §2

[8] = target: T3, mouse CTLA4 extracellular region linked …; assay: SPR Biacore T200, 37C, antibody captured, ATP 1 uM
Description: as §1, §2

human CTLA4 [9] = target: T1, human CTLA4; assay: SPR Biacore T200, 37C, antibody captured, ADP 10 uM;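 further: antibodies held on a Protein G CM3 chip, human CTLA4 as analyte in ACES pH 7.4 buffer, rates from a global 1:1 Langmuir fit, Kd from rates or steady state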
Description: as §1
(§3) The binding ability of the generated variants to human CTLA4 in the presence of ADP or AMP was evaluated by Biacore T200 and compared with the binding ability in the presence of ATP.

human CTLA4 [10] = target: T1, human CTLA4; assay: SPR Biacore T200, 37C, antibody captured, ATP 100 uM
Description: as §1, §2

[11] = target: T2, cynomolgus monkey CTLA4 …; assay: as above
Description: as §1, §2

[12] = target: T3, mouse CTLA4 extracellular region linked …; assay: as above
Description: as §1, §2

human CTLA4 [13] = target: T1, human CTLA4; assay: SPR Biacore T200, 37C, antibody captured, AMP 10 uM
Description: as §1, §3

human CTLA4 [14] = target: T1, human CTLA4; assay: SPR Biacore T200, 37C, antibody captured, ATP 10 uM; remark: listed apart in the source
human CTLA4 [15] = target: T1, human CTLA4; assay: SPR Biacore T200, 37C, antibody captured, ATP 1 uM; remark: listed apart in the source
human FcRn [16] = target: T4, human FcRn (human, UniProt P55899 24-290; P61769 21-119); assay: SPR Biacore T200, captured Ab, pH 6.0, steady state
T4 construct: Prepared by the method of WO 2010/107110; also called hFcRn
Description: The interaction between the generated antibodies and human FcRn was analyzed by the following method using Biacore T200. 50 mM Na-Phosphate, 150 mM NaCl, 0.05% Tween20 (pH 6.0) was used as the running buffer, and the assay was performed at 25° C. For the sensor chip, Series S SA (GE Healthcare) chips onto which CaptureSelect Human Fab-lambda Kinetics Biotin Conjugate (Thermo Fisher Scientific) was immobilized were used. The antibodies of interest were captured onto these chips and FcRn diluted in the running buffer was allowed to interact with them. Chips were regenerated with 10 mM Glycine-HCl (pH 1.5) and 25 mM NaOH, and assay was performed by repeatedly capturing antibodies. The dissociation constant for FcRn of each antibody was calculated using the steady state model, using Biacore T200 Evaluation Software 2.0.

[17] = target: T5, human FcγRIIb extracellular domain with C-terminal His-tag (human, UniProt P31994 43-217); assay: SPR; FcγRIIb bound amount per unit captured Ab
T5 construct: extracellular domain; also called hFcγR IIb
T5 sequence (looked up): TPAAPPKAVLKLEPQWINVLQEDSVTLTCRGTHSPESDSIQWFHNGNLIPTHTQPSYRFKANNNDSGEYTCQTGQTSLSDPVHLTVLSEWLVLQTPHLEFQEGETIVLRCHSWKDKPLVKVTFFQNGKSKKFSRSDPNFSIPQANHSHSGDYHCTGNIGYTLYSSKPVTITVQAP
Description: (§4) The interaction between the generated antibodies and human FcγRs was analyzed by the following method using Biacore T200. 50 mM Na-Phosphate, 150 mM NaCl, 0.05% Tween20 (pH 7.4) was used as the running buffer, and the assay was performed at 25° C. For the sensor chips, Series S SA (GE Healthcare) chips onto which CaptureSelect Human Fab-lambda Kinetics Biotin Conjugate (Thermo Fisher Scientific) was immobilized were used. The antibodies of interest were captured onto these chips and each FcγR diluted in the running buffer was allowed to interact with them. Chips were regenerated with 10 mM Glycine-HCl (pH 1.5) and 25 mM NaOH, and assay was performed by repeatedly capturing antibodies. The dissociation constants KD (mol/L) for FcγRs of each antibody were calculated using Biacore T200 Evaluation Software 2.0, using the 1:1 Langmuir binding model for FcγRIa and FcγRIIIa and the steady state affinity model for FcγRIIa. For FcγRIIb, the binding amount of FcγRIIb per unit amount of antibody was calculated by correcting the binding amount of FcγRIIb obtained from the sensorgram obtained by the measurement with the amount of antibody captured onto the chip surface.

[18] = target: T6, human FcγRIa extracellular domain with C-terminal His-tag (human, UniProt P12314 16-292); assay: SPR Biacore T200, captured Ab, pH 7.4
T6 construct: extracellular domain; also called hFcγR Ia; hFcγRIa
Description: as §4

[19] = target: T7, human FcγRIIa H allotype extracellular domain with C-terminal His-tag (human, UniProt P12318 34-217); assay: SPR Biacore T200, captured Ab, pH 7.4
T7 construct: extracellular domain; also called hFcγR IIa H
T7 sequence (looked up): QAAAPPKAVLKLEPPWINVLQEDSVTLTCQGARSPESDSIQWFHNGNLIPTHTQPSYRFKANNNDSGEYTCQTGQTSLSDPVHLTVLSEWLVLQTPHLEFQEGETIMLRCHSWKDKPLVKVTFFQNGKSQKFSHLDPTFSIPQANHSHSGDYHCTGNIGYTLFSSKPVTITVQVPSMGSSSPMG
Description: as §4

[20] = target: T8, human FcγRIIa R allotype extracellular domain with C-terminal His-tag (human, UniProt P12318 34-217); assay: SPR Biacore T200, captured Ab, pH 7.4
T8 construct: extracellular domain; also called hFcγR IIa R
T8 sequence (looked up): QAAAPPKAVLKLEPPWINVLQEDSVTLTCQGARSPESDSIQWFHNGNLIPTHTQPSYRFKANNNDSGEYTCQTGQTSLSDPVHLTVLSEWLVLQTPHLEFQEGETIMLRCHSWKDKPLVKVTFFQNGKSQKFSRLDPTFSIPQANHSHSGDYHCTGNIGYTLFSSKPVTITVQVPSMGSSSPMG
Description: as §4

[21] = target: T9, human FcγRIIIa F allotype extracellular domain with C-terminal His-tag (human, UniProt P08637 17-208); assay: SPR Biacore T200, captured Ab, pH 7.4
T9 construct: extracellular domain; also called hFcγR IIIa F
Description: as §4

[22] = target: T6, human FcγRIa extracellular domain with …; assay: SPR; KD of 04H1656-G1m/04L1610-lam1 divided by KD of variant
human FcRn [23] = target: T4, human FcRn; assay: as above
[24] = target: T10, human FcγRIIIa V allotype extracellular domain with C-terminal His-tag (human, UniProt P08637 17-208); assay: as above
T10 construct: extracellular domain; also called hFcγR IIIa V

[25] = target: T7, human FcγRIIa H allotype extracellular …; assay: as above
[26] = target: T8, human FcγRIIa R allotype extracellular …; assay: as above
[27] = target: T9, human FcγRIIIa F allotype extracellular …; assay: as above
[28] = target: T10, human FcγRIIIa V allotype extracellular …; assay: SPR Biacore T200, captured Ab, pH 7.4, steady state model
Description: as §4

[29] = target: T5, human FcγRIIb extracellular domain with …; assay: SPR; binding amount divided by that of 04H1656-G1m/04L1610-lam1
[30] = target: T5, human FcγRIIb extracellular domain with …; assay: SPR; FcγRIIb bound amount per unit captured Ab; remark: listed apart in the source
[31] = target: T5, human FcγRIIb extracellular domain with …; assay: SPR; binding amount divided by that of 04H1389-G1m/04L1615-k0MT
[32] = target: T10, human FcγRIIIa V allotype extracellular …; assay: SPR Biacore T200, Ab captured via Fab-kappa, pH 7.4, 25C, steady state model
Description: (§5) The interaction between the generated antibodies and human FcγRs was analyzed using Biacore T200. 50 mM Na-Phosphate, 150 mM NaCl, 0.05% Tween20 (pH 7.4) was used as the running buffer, and the assay was performed at 25° C. For the sensor chip, Series S SA (GE Healthcare) chips onto which CaptureSelect Human Fab-kappa Kinetics Biotin Conjugate (Thermo Fisher Scientific) was immobilized were used. The antibodies of interest were captured onto these chips and each FcγR diluted in the running buffer was allowed to interact with them. Chips were regenerated with 10 mM Glycine-HCl (pH 1.5) and 25 mM NaOH, and assay was performed by repeatedly capturing antibodies. The dissociation constants KD (mol/L) for FcγRs of each antibody were calculated using Biacore T200 Evaluation Software 2.0, and using the 1:1 Langmuir binding model for FcγRIa and FcγRIIIa and the steady state affinity model for FcγRIIa. For FcγRIIb, the binding amount of FcγRIIb per unit amount of antibody was calculated by correcting the binding amount of FcγRIIb obtained from the sensorgram obtained by the measurement with the amount of antibody captured onto the chip surface.

human FcRn [33] = target: T4, human FcRn; assay: SPR Biacore T200, Ab captured via Fab-kappa, pH 6.0, steady state
[34] = target: T6, human FcγRIa extracellular domain with …; assay: SPR; KD of 04H1389-G1m/04L1615-k0MT divided by KD of variant
human FcRn [35] = target: T4, human FcRn; assay: as above
[36] = target: T10, human FcγRIIIa V allotype extracellular …; assay: as above
[37] = target: T7, human FcγRIIa H allotype extracellular …; assay: as above
[38] = target: T8, human FcγRIIa R allotype extracellular …; assay: as above
[39] = target: T6, human FcγRIa extracellular domain with …; assay: SPR Biacore T200, Ab captured via Fab-kappa, pH 7.4, 25C;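 further: each FcγR flowed as analyte over the captured antibodies, KD derived by 1:1 Langmuir or steady-state affinity fitting depending on the receptor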
Description: as §5

[40] = target: T7, human FcγRIIa H allotype extracellular …; assay: as above
Description: as §5

[41] = target: T8, human FcγRIIa R allotype extracellular …; assay: as above
Description: as §5

T1 sequence (chain, as listed by the source limits assumed): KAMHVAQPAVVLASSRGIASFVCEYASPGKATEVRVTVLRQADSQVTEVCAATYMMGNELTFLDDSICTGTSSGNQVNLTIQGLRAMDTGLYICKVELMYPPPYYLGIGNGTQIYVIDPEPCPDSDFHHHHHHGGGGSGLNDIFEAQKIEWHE
T2 sequence (chain, as listed by the source limits assumed): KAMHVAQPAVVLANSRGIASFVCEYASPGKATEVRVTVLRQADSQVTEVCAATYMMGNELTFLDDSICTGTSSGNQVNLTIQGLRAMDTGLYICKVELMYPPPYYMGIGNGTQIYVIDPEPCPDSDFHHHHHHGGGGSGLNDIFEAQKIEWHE
T10 sequence (P08637 17-208 F176V): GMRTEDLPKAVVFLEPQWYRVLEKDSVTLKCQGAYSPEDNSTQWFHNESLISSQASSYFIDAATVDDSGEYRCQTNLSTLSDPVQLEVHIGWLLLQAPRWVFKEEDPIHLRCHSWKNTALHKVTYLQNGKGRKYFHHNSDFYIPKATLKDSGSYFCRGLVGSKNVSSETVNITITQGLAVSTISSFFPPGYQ
T6 sequence (P12314 16-292): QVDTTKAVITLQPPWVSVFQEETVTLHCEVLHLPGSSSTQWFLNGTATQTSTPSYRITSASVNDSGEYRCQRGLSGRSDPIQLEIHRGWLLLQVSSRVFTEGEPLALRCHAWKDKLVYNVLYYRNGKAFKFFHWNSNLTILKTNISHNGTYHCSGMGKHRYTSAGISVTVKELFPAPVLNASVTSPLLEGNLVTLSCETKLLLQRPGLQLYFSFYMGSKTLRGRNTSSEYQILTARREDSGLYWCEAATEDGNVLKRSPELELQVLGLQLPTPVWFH
T9 sequence (P08637 17-208): as the sequence (P08637 17-208 F176V) above, with V160F counted along it

Kd (human CTLA4 [1]): 15 nM | Kd [2]: 28 nM | Kd [3]: 27 nM | Kd (human CTLA4 [4]): 5300 nM | Kd (human CTLA4 [5]): 19 nM | koff (human CTLA4 [5]): 0.0014 s⁻¹ | kon (human CTLA4 [5]): 71000 M⁻¹ s⁻¹ | Kd (human CTLA4 [6]): 110 nM | Kd [7]: 180 nM | Kd [8]: 180 nM | Kd (human CTLA4 [9]): 32 nM | koff (human CTLA4 [9]): 0.0028 s⁻¹ | kon (human CTLA4 [9]): 88000 M⁻¹ s⁻¹ | Kd (human CTLA4 [10]): 4.4 nM | Kd [11]: 8.1 nM | Kd [12]: 10 nM | Kd (human CTLA4 [13]): 100 nM | koff (human CTLA4 [13]): 0.0089 s⁻¹ | kon (human CTLA4 [13]): 89000 M⁻¹ s⁻¹ | Kd (human CTLA4 [14]): 19 nM | Kd (human CTLA4 [15]): 120 nM
B1: 04H1654-G1m/04L1610-lam1 (antibody, human IgG1, lambda)
heavy: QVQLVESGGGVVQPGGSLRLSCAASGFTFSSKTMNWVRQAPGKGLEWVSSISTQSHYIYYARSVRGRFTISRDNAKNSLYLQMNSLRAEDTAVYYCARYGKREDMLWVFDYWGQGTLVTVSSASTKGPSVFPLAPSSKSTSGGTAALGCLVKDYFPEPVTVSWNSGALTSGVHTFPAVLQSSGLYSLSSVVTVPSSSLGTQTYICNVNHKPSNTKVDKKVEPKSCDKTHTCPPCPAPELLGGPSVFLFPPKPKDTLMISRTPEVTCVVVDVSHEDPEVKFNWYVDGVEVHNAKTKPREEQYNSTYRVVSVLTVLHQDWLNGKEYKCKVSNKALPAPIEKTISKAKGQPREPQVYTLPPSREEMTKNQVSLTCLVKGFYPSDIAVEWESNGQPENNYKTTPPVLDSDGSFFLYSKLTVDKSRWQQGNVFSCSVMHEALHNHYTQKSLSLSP
light: QSALTQPPSASGSPGQSVTISCEGPSTGVGDYNWVHWYQQHPGKAPKLMIYFTSKKPSGVPDRFSGSKSGNTASLTVSGLQAEDEADYYCQTYAAPLGPMFGGGTKLTVLGQPKAAPSVTLFPPSSEELQANKATLVCLISDFYPGAVTVAWKADSSPVKAGVETTTPSKQSNNKYAASSYLSLTPEQWKSHRSYSCQVTHEGSTVEKTVAPTECS

Kd (human FcRn [16]): 1700 nM | Binding amount [17]: 0.008 | Kd [18]: 0.092 nM | Kd [19]: 1300 nM | Kd [20]: 1600 nM | Kd [21]: 1000 nM | Relative value to KD between G1m and hFcγRs [22]: 1 | Relative value to KD between G1m and hFcRn (human FcRn [23]): 1 | Relative value to KD between G1m and hFcγRs [24]: 1 | Relative value to KD between G1m and hFcγRs [25]: 1 | Relative value to KD between G1m and hFcγRs [26]: 1 | Relative value to KD between G1m and hFcγRs [27]: 1 | Kd [28]: 970 nM | Relative binding amount [29]: 1
B2: 04H1656-G1m/04L1610-lam1 (antibody, human IgG1, lambda)
heavy: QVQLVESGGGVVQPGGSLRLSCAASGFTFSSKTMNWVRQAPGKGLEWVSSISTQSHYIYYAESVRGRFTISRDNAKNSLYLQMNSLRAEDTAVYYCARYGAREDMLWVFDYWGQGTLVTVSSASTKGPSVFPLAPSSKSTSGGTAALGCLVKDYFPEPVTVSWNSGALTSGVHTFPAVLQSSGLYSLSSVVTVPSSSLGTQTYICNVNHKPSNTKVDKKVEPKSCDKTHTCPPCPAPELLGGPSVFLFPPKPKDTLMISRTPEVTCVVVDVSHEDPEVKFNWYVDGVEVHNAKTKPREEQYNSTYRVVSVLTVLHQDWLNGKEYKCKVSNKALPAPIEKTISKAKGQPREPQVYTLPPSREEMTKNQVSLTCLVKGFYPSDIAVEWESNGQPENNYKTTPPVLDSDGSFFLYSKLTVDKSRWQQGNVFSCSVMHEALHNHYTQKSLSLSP
light: QSALTQPPSASGSPGQSVTISCEGPSTGVGDYNWVHWYQQHPGKAPKLMIYFTSKKPSGVPDRFSGSKSGNTASLTVSGLQAEDEADYYCQTYAAPLGPMFGGGTKLTVLGQPKAAPSVTLFPPSSEELQANKATLVCLISDFYPGAVTVAWKADSSPVKAGVETTTPSKQSNNKYAASSYLSLTPEQWKSHRSYSCQVTHEGSTVEKTVAPTECS

Binding amount [30]: 0.011 | Relative binding amount [31]: 1 | Kd [32]: 910 nM | Kd (human FcRn [33]): 1300 nM | Relative value to KD between G1m and hFcγRs [34]: 1 | Relative value to KD between G1m and hFcRn (human FcRn [35]): 1 | Relative value to KD between G1m and hFcγRs [36]: 1 | Relative value to KD between G1m and hFcγRs [37]: 1 | Relative value to KD between G1m and hFcγRs [38]: 1 | Kd [39]: 0.045 nM | Kd [40]: 1100 nM | Kd [41]: 1500 nM
B3: 04H1389-G1m/04L1615-k0MT (antibody, human IgG1, kappa)
heavy: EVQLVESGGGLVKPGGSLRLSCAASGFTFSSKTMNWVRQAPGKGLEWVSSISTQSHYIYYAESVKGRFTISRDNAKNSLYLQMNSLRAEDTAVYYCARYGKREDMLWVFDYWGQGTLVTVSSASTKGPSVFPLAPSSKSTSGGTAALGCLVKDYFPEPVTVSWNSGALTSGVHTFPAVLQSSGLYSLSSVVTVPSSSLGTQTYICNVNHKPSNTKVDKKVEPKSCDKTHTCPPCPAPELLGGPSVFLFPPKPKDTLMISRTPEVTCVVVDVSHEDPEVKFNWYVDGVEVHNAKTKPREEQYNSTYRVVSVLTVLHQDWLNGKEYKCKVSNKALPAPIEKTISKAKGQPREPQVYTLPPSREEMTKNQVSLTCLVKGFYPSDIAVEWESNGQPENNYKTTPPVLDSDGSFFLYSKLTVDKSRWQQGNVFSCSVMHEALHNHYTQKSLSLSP
light: DIVMTQSPLSLPVTPGEPASISCQGPSTGVGDYNYVHWYQQKPGQAPRLLIYFTSKKPSGVPDRFSGSGSGTDFTLKISRVEAEDVGVYYCQTYAAPLGPMFGQGTKLEIKRTVAAPSVFIFPPSDEQLKSGTASVVCLLNNFYPREAKVQWKVDNALQSGNSQESVTEQDSKDSTYSLSSTLTLSKADYEKHKVYACEVTHQGLSSPVTKSFNRGEC
notes: Homodimer used for comparison; also called 04H1389-G1m/04L16150k0MT
